B1: Recombinant human azurocidin^27-250: recombinant azurocidin 27-250 purified from murine myeloma cells, R&D Systems (protein)
chain: IVGGRKARPRQFPFLASIQNQGRHFCGGALIHARFVMTAASCFQSQNPGVSTVVLGAYDLRRRERQSRQTFSISSMSENGYDPQQNLNDLMLLQLDREANLTSSVTILPLPLQNATVEAGTRCQVAGWGSQRSGGRLSRFPRFVNVTVTPEDQCRPNNVCTGVLTRRGGICNGDGGTPLVCEGLAHGVASFSLGPCGRGPDFFTRVALFRDWIDGVLNNPGPGP
B2: partially purified azurocidin: desalted eluate of heparin affinity chromatography of human urine, containing azurocidin, myeloperoxidase and lactoferrin (protein)
chain: IVGGRKARPRQFPFLASIQNQGRHFCGGALIHARFVMTAASCFQSQNPGVSTVVLGAYDLRRRERQSRQTFSISSMSENGYDPQQNLNDLMLLQLDREANLTSSVTILPLPLQNATVEAGTRCQVAGWGSQRSGGRLSRFPRFVNVTVTPEDQCRPNNVCTGVLTRRGGICNGDGGTPLVCEGLAHGVASFSLGPCGRGPDFFTRVALFRDWIDGVLNNPGP

What was measured:
IGFBP-1 [1] = molecular target: T1, IGFBP-1 (Homo sapiens, UniProt P08833); experiment: Azurocidin-dependent IGFBP-1 protease activity (SDS-PAGE, ECL or silver staining); type: biochemical; conditions: for effect on IGFBP-1 (proteolysis): commercial recombinant protein from mouse myeloma cells
T1 construct: purchased Kabi Pharmacia (Sweden), donated
T1 sequence (P08833 26-259): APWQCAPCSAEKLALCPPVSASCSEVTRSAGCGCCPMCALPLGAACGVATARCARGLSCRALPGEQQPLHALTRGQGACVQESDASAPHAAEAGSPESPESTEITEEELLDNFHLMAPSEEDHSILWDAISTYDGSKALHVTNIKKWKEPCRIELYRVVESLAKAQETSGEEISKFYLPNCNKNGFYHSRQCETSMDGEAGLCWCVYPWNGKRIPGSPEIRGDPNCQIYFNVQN
Protocol: Recombinant phosphorylated IGFBP-1 was used as substrate and incubations were carried out under neutral conditions for 2 h at 37 C. IGFBP-1 fragments were separated on SDS-PAGE, and detected by ECL as described in the methods. Panel A: Incubations with 0.25 μL eluate (HE) from heparin affinity chromatography (50 μl urine equiv.) in the presence and absence of anti-azurocidin antibody; and 1 μl HE of the loading material (L), and the flow through after affinity chromatography on protein G columns without (G) and with bound anti-chymase (C) or anti-azurocidin (A) antibodies. Panel B: Incubations in the presence and absence of 25 ng anti-azurocidin antibody with increasing volumes of white cell extract from the individual with a specific IGFBP-1 protease in urine compared to the white cell extract pooled from 6 healthy subjects;
Recombinant IGFBP-1 was incubated with the eluate from heparin affinity chromatography (HE) with a ratio of azurocidin:BP-1 of 1:3,500. After the times indicated, proteins were detected by silver staining after SDS-PAGE;
Gels were fixed, dried and analysed with the Fuji PhosphoImage program (Fuji Co., Stockholm, Sweden). Biotinylated IGFBP-1 and its fragments were separated on 14% SDS-PAGE under reducing conditions, transferred to PVDF (Biorad, Sundbyberg, Sweden), incubated with neutravidin-horseradish peroxidase (Pierce Biotechnology Inc, Rochester, Ill.) and detected by ECL (Amersham Biosciences, Uppsala, Sweden). Silver staining of proteins and fragments was performed after denaturing 12% PAGE under reducing conditions (SilverQuest and NuPAGE, Invitrogen, Stockholm, Sweden).
Heparin affinity chromatography was carried out in batches using heparin-agarose gel (Pharmacia). Urine was diluted 1:5 in 10 mM sodium phosphate, with 0.25 M NaCl buffer, pH 7 and incubated with gel for 30 min at 4 C. The gel was transferred to a column and washed with 10 times the gel volume of buffer. Heparin binding proteins were eluted in loading buffer containing 2M NaCl and the eluate was desalted, concentrated using a 10 kDa spin column and stored at −80 C. Concentrated material derived from 700 ml urine were applied to C4 reverse-phase HPLC, in 0.1% TFA on an acetonitrile gradient of 0-100%. Immunoaffinity chromatography was performed using monoclonal anti-azurocidin antibody attached to protein G Sepharose (Sigma-Aldrich, Sweden). In brief, antibody bound gel was incubated with the eluate from heparin affinity chromatography for 2 h at 22 C, and transferred to a Bio-Spin chromatography column (BioRad). The flow-through was collected for analysis of protease activity. As controls, an additional column was prepared with a monoclonal antibody against human mast cell chymase and a second column with no bound antibody.

IGFBP-1 [2] = molecular target: T1, IGFBP-1; experiment: Sequence analysis of IGFBP-1 fragments after azurocidin-dependent proteolysis; type: biochemical
Protocol: A: Recombinant npIGFBP-1 was incubated without (−) and with (+) 0.25 μl partially purified azurocidin in a protease:substrate ratio of 1:3 500 for 2 h at 37 C. The fragments were purified on HPLC. N-, purified fragments with the N-terminal sequence of IGFBP-1, APWQCAP-, c-, small fragment with the sequence STYDGSK-, C-, purified C-terminal fragments with the sequence TNIKKWK-. Samples were separated on 12% SDS-PAGE and visualised by silver staining. Molecular mass markers are indicated by the arrows. B: Summary of sequence analysis of IGFBP-1 fragments after azurocidin-dependent proteolysis. N-terminal sequence analysis was performed on fragments purified by HPLC on 4 separate occasions. C-terminal sequence analysis was perform on one HPLC run. Cleavage sites are indicated by the arrows. a, the primary cleavage site present in 4 runs. b, a secondary cleavage site, present in 3 runs. c, cleavage sites, each identified in only one of the four runs. […]
The primary cleavage site in IGFBP-1 was determined by HPLC-separation of phosphorylated IGFBP-1 after incubation with heparin eluate, and HPLC purification of fragments, followed by N- and C-terminal sequencing. […] N- and C-terminal sequencer degradations were performed on HPLC purified proteins in ABI instruments as described (refs 2 and 3), From this analysis, the quantity of azurocidin quantity in urine was estimated to be 25 pmol/100 ml.

Molecule | effect on IGFBP-1 (proteolysis) (IGFBP-1 [1]; data not shown) | effect on IGFBP-1 (proteolysis) (IGFBP-1 [1]; data not shown, listed as recombinant azurocidin) | secondary cleavage site in IGFBP-1 (IGFBP-1 [2]; present in 3 of the HPLC runs) | primary cleavage site in IGFBP-1 (IGFBP-1 [2]; present in all 4 HPLC runs, confirmed by C-terminal sequence analysis) | IGFBP-1 proteolytic activity after exposure to 0.1% TFA (IGFBP-1 [1]; 0.1% TFA in HPLC buffer, lyophilization, reconstitution in assay buffer) | IGFBP-1 protease activity (IGFBP-1 [1]; after heparin affinity chromatography of urine) | IGFBP-1 proteolytic activity after reduction with dithiothreitol (IGFBP-1 [1]; data not shown)
B1 | no effect | lacked activity | – | – | – | – | –
B2 | – | – | Val^141-Thr^142 | Ile^130-Ser^131 | abolished | present | loss of activity

Source: patent US20100129344A1, “MEDICAL USES AND THERAPIES BASED UPON THE ACTION OF AZUROCIDIN ON IGFBP-1” (priority 2005, published 2010)
